Experimental findings from patent publication US20220010021A1 (Sanofi, published 2022) are described below.

Assay [1] has as its target human FGFR1c/KLB receptor complex on primary human adipocytes (human, UniProt P11362 22-822; Q86Z14 1-1044). Kind of assay: cell-based or functional assay.
Assay [2] has as its target T1, human beta-Klotho (KLB) (human, UniProt Q86Z14 53-997).
T1 construct: bought recombinant protein, analyte of the BLI off-rate screen; also called human KLB
T1 sequence (looked up): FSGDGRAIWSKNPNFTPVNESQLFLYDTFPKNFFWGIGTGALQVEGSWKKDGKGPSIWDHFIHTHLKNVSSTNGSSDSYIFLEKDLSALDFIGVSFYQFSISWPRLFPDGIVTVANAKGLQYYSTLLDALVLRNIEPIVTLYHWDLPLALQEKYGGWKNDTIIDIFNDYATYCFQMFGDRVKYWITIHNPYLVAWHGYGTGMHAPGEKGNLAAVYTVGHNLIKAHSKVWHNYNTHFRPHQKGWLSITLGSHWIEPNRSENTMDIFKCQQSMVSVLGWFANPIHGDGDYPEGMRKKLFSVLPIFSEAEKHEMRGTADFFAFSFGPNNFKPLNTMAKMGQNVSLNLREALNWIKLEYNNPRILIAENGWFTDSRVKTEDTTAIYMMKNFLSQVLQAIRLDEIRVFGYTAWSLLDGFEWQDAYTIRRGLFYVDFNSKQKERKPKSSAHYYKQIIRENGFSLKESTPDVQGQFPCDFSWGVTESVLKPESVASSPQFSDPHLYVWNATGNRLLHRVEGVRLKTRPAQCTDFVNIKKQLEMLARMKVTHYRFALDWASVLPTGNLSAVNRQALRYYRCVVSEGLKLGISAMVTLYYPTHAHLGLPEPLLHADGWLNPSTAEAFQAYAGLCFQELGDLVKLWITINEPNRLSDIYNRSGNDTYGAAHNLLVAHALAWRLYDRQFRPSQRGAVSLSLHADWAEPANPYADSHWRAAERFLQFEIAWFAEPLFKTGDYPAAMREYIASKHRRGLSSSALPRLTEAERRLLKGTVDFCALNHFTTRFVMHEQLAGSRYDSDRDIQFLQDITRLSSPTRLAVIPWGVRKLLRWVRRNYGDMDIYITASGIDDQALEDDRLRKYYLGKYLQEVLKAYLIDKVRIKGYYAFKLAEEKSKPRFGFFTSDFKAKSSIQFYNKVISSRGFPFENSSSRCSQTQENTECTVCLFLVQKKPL
Kind of assay: BLI off-rate screen.

For assay [3], the target named is cell surface receptor composed of FGFR1c and co-receptor beta-Klotho (KLB) on iLite FGF21 Assay Ready Cells (human, UniProt P11362 22-822; Q86Z14 1-1044). Kind of assay: cell-based or functional assay.
Chain of cell surface receptor composed of FGFR1c and co-receptor beta-Klotho (KLB) on iLite FGF21 Assay Ready Cells (P11362 22-822, chain 1 of 2): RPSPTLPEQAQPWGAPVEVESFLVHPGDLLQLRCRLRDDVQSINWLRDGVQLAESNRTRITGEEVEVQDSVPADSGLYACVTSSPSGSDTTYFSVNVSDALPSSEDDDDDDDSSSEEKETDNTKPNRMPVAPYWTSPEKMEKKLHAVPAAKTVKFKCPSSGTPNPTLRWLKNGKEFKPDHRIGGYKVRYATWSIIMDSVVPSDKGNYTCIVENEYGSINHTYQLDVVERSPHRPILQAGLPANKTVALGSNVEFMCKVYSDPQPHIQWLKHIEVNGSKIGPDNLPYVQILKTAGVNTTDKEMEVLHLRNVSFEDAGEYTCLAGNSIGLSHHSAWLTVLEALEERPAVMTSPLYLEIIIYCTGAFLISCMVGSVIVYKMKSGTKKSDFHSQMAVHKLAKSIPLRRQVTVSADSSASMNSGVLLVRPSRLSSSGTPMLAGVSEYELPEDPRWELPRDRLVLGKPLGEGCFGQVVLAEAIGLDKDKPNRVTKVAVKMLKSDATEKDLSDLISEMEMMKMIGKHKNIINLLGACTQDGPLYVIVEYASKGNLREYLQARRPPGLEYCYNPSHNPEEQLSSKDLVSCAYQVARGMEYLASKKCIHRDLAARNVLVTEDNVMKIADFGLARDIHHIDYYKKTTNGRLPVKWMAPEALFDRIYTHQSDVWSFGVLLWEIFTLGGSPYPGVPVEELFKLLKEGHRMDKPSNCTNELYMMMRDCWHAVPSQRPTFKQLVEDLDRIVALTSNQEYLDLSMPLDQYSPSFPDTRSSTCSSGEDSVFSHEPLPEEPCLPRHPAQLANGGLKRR
Chain of cell surface receptor composed of FGFR1c and co-receptor beta-Klotho (KLB) on iLite FGF21 Assay Ready Cells (Q86Z14 whole entry, chain 2 of 2): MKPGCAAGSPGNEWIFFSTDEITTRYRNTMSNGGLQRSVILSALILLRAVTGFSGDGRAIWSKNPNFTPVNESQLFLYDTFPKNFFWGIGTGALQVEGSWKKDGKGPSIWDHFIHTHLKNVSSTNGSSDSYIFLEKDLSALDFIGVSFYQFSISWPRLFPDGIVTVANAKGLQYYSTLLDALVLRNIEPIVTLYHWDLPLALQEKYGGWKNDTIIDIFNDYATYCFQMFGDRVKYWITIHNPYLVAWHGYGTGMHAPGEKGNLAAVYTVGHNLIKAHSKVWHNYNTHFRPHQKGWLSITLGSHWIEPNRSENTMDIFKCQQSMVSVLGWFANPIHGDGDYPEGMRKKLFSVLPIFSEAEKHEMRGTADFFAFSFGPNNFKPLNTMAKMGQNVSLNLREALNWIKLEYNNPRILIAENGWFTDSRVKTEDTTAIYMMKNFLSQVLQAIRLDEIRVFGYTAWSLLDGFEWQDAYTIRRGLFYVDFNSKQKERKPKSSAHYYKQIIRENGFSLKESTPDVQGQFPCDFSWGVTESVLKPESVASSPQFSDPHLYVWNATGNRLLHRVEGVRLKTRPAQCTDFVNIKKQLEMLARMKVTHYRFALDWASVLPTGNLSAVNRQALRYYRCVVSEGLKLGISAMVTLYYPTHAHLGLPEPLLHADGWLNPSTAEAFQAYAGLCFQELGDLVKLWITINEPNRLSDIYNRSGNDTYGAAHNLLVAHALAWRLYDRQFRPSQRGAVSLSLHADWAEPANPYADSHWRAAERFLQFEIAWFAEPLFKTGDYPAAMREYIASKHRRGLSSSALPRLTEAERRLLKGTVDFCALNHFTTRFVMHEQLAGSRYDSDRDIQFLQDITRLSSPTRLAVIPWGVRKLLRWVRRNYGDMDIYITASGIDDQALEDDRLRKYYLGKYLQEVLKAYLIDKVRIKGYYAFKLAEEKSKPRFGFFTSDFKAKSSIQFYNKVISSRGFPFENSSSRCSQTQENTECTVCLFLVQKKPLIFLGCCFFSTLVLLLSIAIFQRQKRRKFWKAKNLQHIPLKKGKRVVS

Changes are numbered by the printed parent chain. Names may count otherwise.

Chain of human FGFR1c/KLB receptor complex on primary human adipocytes (P11362 22-822, chain 1 of 2): as the sequence (P11362 22-822, chain 1 of 2) above
Chain of human FGFR1c/KLB receptor complex on primary human adipocytes (Q86Z14 whole entry, chain 2 of 2): as the sequence (Q86Z14 whole entry, chain 2 of 2) above

B1: Ab0429 (antibody, human IgG1, lambda)
heavy: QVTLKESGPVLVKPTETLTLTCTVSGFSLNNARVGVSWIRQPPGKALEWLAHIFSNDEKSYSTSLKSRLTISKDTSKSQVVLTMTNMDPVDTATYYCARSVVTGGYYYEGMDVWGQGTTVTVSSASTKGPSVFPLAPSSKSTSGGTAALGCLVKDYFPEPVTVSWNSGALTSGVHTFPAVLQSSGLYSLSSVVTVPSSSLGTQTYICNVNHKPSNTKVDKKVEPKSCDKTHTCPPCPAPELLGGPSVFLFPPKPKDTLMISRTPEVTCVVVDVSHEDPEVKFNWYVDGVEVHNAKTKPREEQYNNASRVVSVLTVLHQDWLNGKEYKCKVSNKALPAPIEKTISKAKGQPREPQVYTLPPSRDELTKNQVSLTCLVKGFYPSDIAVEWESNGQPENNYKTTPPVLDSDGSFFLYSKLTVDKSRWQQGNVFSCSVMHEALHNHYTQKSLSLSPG
light: SYVLTQPPSVSVAPGQTARITCGGSNIGSESVHWYQQKPGQAPVLVVYSASDRPSGIPERFSGSNSGNTATLTISRVEAGDEADYYCQVWEGESDHVVFGGGTKLTVLGQPKANPTVTLFPPSSEELQANKATLVCLISDFYPGAVTVAWKADGSPVKAGVETTKPSKQSNNKYAASSYLSLTPEQWKSHRSYSCQVTHEGSTVEKTVAPTECS
For the molecule B1, the “In-Cell Western pERK EC50, primary human adipocytes” value in assay [1] turned out to be 0.078 nmol/L.

B2: Ab0430 (antibody, human IgG1, lambda)
heavy: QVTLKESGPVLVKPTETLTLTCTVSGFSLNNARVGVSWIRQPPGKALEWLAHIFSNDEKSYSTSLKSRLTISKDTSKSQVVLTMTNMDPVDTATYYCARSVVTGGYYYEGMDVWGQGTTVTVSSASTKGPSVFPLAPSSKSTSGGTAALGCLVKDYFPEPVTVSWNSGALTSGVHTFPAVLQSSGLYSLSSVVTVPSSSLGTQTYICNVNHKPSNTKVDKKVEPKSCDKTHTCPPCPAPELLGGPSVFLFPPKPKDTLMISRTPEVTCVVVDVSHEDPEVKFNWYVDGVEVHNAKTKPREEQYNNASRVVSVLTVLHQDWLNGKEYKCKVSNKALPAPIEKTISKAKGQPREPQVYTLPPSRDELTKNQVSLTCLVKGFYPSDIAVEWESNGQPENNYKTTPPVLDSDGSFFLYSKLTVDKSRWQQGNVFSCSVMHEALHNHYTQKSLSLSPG
light: B1 light with S49E, A50E
For the molecule B2, the “In-Cell Western pERK EC50, primary human adipocytes” value in assay [1] turned out to be 0.116 nmol/L.

B3: 16H7 variant with light chain substitution Q88A (antibody, V domains shown)
VH: not shown
VL: SYVLTQPPSVSVAPGQTARITCGGNNIGSESVHWYQQKPGQAPVLVVYDDSDRPSGIPERFSGSNSGNTATLTISRVEAGDEADYYCAVWDGNSDHVVFGGGTKLTVLG
B3: the koff (in general, the first-order rate constant of dissociation) in assay [2] came to 0.00011 s⁻¹. Further, in assay [3], the “Mean E max” value stood at 108% and the “Mean EC50” value came to 0.133 nM.

B4: 16H7 variant with light chain substitution Q88G (antibody, V domains shown)
VH: not shown
VL: B3 VL with A88G
B4 had a koff in assay [2] of 0.00017 s⁻¹. Moreover, in assay [3], the “Mean E max” value was 110% and the “Mean EC50” value stood at 0.129 nM.

B5: 16H7 variant with light chain substitution Q88L (antibody, V domains shown)
VH: not shown
VL: B3 VL with A88L
In assay [2], B5 gave a koff of 9.9e-05 s⁻¹. Further, in assay [3], the “Mean E max” value is 107% and the “Mean EC50” value came to 0.134 nM.

B6: 16H7 variant with light chain substitution Q88M (antibody, V domains shown)
VH: not shown
VL: B3 VL with A88M
In assay [2], B6 came in with a koff of 9.9e-05 s⁻¹. Besides, in assay [3], the “Mean E max” value was 90% and the “Mean EC50” value came to 0.104 nM.
